Experiments:
[1] = target: T1, full-length hCD22-ECD (668aa) displayed on yeast cells (human, UniProt P20273 20-687); experiment: yeast display cell ELISA, heat denatured cells (80 C, 30 min)
T1 construct: extracellular domain; Yeast surface display fusion Aga2-HA-(insert)-MYC; also called Bin 8; CD22-ECD Full lenght; not shown: Aga2-HA display fusion partner of vector pPNL6; MYC tag
T1 sequence (looked up): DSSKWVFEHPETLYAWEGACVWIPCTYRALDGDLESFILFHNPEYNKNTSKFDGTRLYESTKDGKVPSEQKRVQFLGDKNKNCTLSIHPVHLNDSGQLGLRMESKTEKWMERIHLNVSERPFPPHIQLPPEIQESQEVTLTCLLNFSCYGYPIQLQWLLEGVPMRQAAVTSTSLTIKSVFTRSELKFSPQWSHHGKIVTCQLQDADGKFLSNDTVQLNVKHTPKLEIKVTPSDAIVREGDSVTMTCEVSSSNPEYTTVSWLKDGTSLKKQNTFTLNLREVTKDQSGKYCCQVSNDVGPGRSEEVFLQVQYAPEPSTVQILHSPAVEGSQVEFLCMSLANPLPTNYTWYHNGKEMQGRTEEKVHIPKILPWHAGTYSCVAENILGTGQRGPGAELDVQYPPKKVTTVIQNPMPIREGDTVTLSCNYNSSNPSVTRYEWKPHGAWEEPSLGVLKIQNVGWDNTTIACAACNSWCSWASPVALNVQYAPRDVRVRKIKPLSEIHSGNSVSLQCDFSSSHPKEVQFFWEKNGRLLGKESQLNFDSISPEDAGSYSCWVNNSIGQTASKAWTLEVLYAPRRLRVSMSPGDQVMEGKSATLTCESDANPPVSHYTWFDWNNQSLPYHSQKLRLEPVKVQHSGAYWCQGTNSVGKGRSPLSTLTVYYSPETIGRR
Description: (§1) The YSD vector (pPNL6) was from The Pacific Northwest National Laboratory, USA. […] The HRP activity was assayed with substrate TMB (tetramethyl benzidine) according to the manufacture’s conditions and read at OD₄₅₀.
(§2) Table 7 depicts the assessment of the nature of the epitopes of CD22 sdAbs to determine if the epitopes for the sdAbs are continuous (linear) or non-continuous (conformational). […] The binding of each sdAb to native and denatured CD22 fragments was measured as OD₄₅₀, and the ratio of the binding to denatured CD22 to non-denatured CD22 was calculated, with the ratio ≥ 0.5 indicative linear (L), and the ratio < 0.5 indicative of conformational (C) epitopes.

[2] = target: T1, full-length hCD22-ECD (668aa) displayed …; experiment: yeast display cell ELISA, OD on denatured over non-denatured CD22 ECD
Description: as §1, §2

[3] = target: T2, hCD22 fragment Bin 1, IVR1 (aa1-135), displayed on yeast cells (human, UniProt P20273 20-154); experiment: yeast display cell ELISA, heat denatured cells (80 C, 30 min)
T2 construct: range 1-135; Range is counted on the mature ECD, not on the UniProt entry; on P20273 it would be 20-154 (my arithmetic); also called CD22 Sub-Domain 1; not shown: Aga2-HA display fusion partner of vector pPNL6; MYC tag
T2 sequence (looked up): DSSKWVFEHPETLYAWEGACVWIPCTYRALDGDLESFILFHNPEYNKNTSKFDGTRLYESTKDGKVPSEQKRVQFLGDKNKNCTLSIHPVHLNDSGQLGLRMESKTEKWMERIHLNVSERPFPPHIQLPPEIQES
Description: as §1, §2

[4] = target: T3, hCD22 fragment Bin 4, IVR4 (aa303-405), displayed on yeast cells (human, UniProt P20273 322-424); experiment: as above
T3 construct: Range is counted on the mature ECD, not on the UniProt entry; on P20273 it would be 322-424 (my arithmetic); also called CD22 Sub-Domain 4; not shown: Aga2-HA display fusion partner of vector pPNL6; MYC tag
T3 sequence (looked up): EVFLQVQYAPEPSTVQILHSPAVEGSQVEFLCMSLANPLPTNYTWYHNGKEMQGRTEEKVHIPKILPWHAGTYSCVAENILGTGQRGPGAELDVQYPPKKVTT
Description: as §1, §2

B1: hCD22pas-32 (VHH)
VHH: QVQLVESGGGLVQAGGSLRLSCAVSGRIFRSYVLGWFRQAPGKERELVARIGWSDTYYADSVKGRFTISRDNAKNTVDLQMNSLKPEDTAVYYCAANSPPYGPQRDEFGYWGQGTQVTVSS
modifications: single biotin at the VHH C-terminal (biotinylation signal sequence)
notes: llama VHH, expressed in E. coli TG1, IMAC purified, monomeric SEC fraction; also called VHH # 15; 6-hCD22 pas-32
Q: What does the source list for B1?
A: Heat Inactivated CD22 OD [1]: 0 OD450; CD22 Ratio (D/ND) [2]: 0

B2: hCD221ug-80 (VHH)
VHH: QVQLVESGGGLVQPGGSLRLSCTFSGFTLDYYVMVWFRQAPGKEREAVSCITSDGVTYYADSVKGRFTISRDNAKNTVYLQMNRVKPEDTAVYYCAVDKPFYDGGIQYTCPVDFDSWGQGAQVTVSS
modifications: single biotin at the VHH C-terminal (biotinylation signal sequence)
notes: llama VHH, expressed in E. coli TG1, IMAC purified, monomeric SEC fraction; also called VHH # 1; 2-hCD22 1ug-80
Q: For B2, which “Heat Inactivated CD22 OD” value [3] is on record?
A: Its value is 1.77 OD450.

B3: hCD221ug-13 (VHH)
VHH: QVQLVESGGGLVQAGDSLRLSCAGSGGSFSSVTMAWFRQAPGKDREFVAAITWSSPSTYYADSVKGRFTISRDNAKNTVYLQMNSLKPEDTAVYYCAGGRTGRGTSADTDEYNYWGQGTQVTVSS
modifications: single biotin at the VHH C-terminal (biotinylation signal sequence)
notes: llama VHH, expressed in E. coli TG1, IMAC purified, monomeric SEC fraction; also called VHH # 21; 1-hCD22 1ug-13
Q: How did the “Heat Inactivated CD22 OD” value [4] turn out when B3 was run?
A: The value was 0.686 OD450.

From patent publication US20230265185A1 (NATIONAL RESEARCH COUNCIL OF CANADA, published 2023)
